# Measured values reported in paper PMC4888784.
# Target: PIN1 (UniProt Q13526)
# Test: His-tagged peptide binding to GST-PIN1
# Details: reference: nonphosphorylated S203/P204 peptide; sites S203
substance,measurement,value
"PGK1 (phosphoglycerate kinase 1) oligopeptide containing S203/P204, borders not given (from UniProt P00558) pS203/P204 peptide",binding against the reference,stronger
